From patent US20190202883A1 (Takeda / Millennium, published 2019) come the findings set out here.

Square brackets hold non-standard residues; d marks the D form. Side chains are listed from the residue outwards. αMeF = C[C@](N)(Cc1ccccc1)C(=O)O; Iva = CC[C@](C)(N)C(=O)O; Oda = not defined here; Aib = CC(C)(N)C(=O)O

Common to all, as to assay: cell-based or functional assay
In assay [1] the target is T1, human NPY2R (human, UniProt P49146 1-381).
T1 sequence (looked up): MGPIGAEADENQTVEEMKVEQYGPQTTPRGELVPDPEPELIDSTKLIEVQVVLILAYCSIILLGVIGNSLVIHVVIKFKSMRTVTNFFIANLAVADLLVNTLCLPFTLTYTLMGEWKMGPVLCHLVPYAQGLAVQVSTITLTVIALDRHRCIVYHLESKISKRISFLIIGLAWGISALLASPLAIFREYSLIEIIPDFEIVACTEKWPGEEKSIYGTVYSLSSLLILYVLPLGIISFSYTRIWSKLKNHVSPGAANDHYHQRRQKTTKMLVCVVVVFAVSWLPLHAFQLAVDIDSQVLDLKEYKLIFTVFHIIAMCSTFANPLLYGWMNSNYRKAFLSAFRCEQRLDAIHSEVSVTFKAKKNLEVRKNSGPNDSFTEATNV

For assay [2], the target named is T2, human GIPR (human, UniProt P48546 22-466).
T2 sequence (looked up): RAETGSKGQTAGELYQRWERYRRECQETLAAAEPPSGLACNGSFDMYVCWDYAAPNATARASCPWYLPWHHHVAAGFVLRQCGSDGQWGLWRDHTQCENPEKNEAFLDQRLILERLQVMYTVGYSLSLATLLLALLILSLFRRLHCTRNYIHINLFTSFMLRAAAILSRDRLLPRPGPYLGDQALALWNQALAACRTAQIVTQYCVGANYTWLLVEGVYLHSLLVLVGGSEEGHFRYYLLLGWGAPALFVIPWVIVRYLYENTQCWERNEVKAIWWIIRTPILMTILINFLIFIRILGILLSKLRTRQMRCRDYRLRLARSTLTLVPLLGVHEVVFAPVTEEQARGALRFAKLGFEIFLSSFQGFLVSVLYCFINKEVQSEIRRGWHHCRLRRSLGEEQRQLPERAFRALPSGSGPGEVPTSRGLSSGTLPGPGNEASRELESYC

For assay [3], the target named is human GLP-1R (human, UniProt P43220 24-463).

B1: Me-Tyr-Aib-Glu-Gly-Thr-αMePhe-Thr-Ser-Asp-Lys(-Gly-Gly-Gly-Gly-Oda)-Aib-Ile-Aib-Leu-Asp-Lys-Gln-Ala-Gln-Iva-Glu-Phe-Val-Arg-His-Leu-Leu-Asn-Lys-Aib-Thr-Arg-Gln- … (peptide)
peptide: Me-Y[Aib]EGT[αMeF]TSDK([Gly-Gly-Gly-Gly-Oda])[Aib]I[Aib]LDKQAQ[Iva]EFVRHLLNK[Aib]TRQRY-NH2
modifications: reading uncertain; also: printed as Me-Tyr-Aib-Glu-Gly-Thr-αMePhe-Thr-Ser-Asp-Lys(-Gly-Gly-Gly-Gly-Oda)-Aib-Ile-Aib-Leu-Asp-Lys-Gln-Ala-Gln-Iva-Glu-Phe-Val-Arg-His-Leu-Leu-Asn-Lys-Aib-Thr-Arg-Gln-Arg-Tyr-NH2
Regarding B1, the “Agonist activity (EC50), Cre-luc reporter assay” value (shortened to “Agonist activity (EC50)”) in assay [1] came out at 3.3 nM; in assay [2], 0.074 nM; in assay [3], 0.15 nM.

B2: H-Tyr-Aib-Glu-Gly-Thr-αMePhe-Thr-Ser-Asp-Lys(-Gly-Gly-Gly-Gly-Oda)-Aib-Ile-Aib-Leu-Asp-Lys-Gln-Ala-Gln-Iva-Glu-Phe-Val-Arg-His-Leu-Leu-Asn-Lys-Aib-Thr-Arg-Gln-A … (peptide)
peptide: H-Y[Aib]EGT[αMeF]TSDK([Gly-Gly-Gly-Gly-Oda])[Aib]I[Aib]LDKQAQ[Iva]EFVRHLLNK[Aib]TRQRY-NH2
modifications: reading uncertain; also: printed as H-Tyr-Aib-Glu-Gly-Thr-αMePhe-Thr-Ser-Asp-Lys(-Gly-Gly-Gly-Gly-Oda)-Aib-Ile-Aib-Leu-Asp-Lys-Gln-Ala-Gln-Iva-Glu-Phe-Val-Arg-His-Leu-Leu-Asn-Lys-Aib-Thr-Arg-Gln-Arg-Tyr-NH2
Take B2: the “Agonist activity (EC50)” value was found to be 2.4 nM in assay [1], 0.074 nM in assay [2] and 0.078 nM in assay [3].

B3: H-Tyr-Aib-Glu-Gly-Thr-αMePhe-Thr-Ser-Asp-Lys(-Gly-Gly-Gly-Gly-Oda)-Aib-Ile-Aib-Leu-Glu-Lys-Gln-Arg-Gln-Iva-Glu-Phe-Val-Arg-His-Leu-Leu-Asn-Lys-Aib-Thr-Arg-Gln-A … (peptide)
peptide: H-Y[Aib]EGT[αMeF]TSDK([Gly-Gly-Gly-Gly-Oda])[Aib]I[Aib]LEKQRQ[Iva]EFVRHLLNK[Aib]TRQRY-NH2
modifications: reading uncertain; also: printed as H-Tyr-Aib-Glu-Gly-Thr-αMePhe-Thr-Ser-Asp-Lys(-Gly-Gly-Gly-Gly-Oda)-Aib-Ile-Aib-Leu-Glu-Lys-Gln-Arg-Gln-Iva-Glu-Phe-Val-Arg-His-Leu-Leu-Asn-Lys-Aib-Thr-Arg-Gln-Arg-Tyr-NH2
Take B3: the “Agonist activity (EC50)” value came to 2.7 nM in assay [1], 0.52 nM in assay [2] and 0.25 nM in assay [3].

B4: H-Tyr-Aib-Glu-Gly-Thr-αMePhe-Thr-Ser-Asp-Lys(-Gly-Gly-Gly-Gly-Pal)-Aib-Ile-Aib-Leu-Glu-Lys-Gln-Arg-Gln-Iva-Glu-Phe-Val-Arg-His-Leu-Leu-Asn-Lys-Aib-Thr-Arg-Gln-A … (peptide)
peptide: H-Y[Aib]EGT[αMeF]TSDK([Gly-Gly-Gly-Gly-Pal])[Aib]I[Aib]LEKQRQ[Iva]EFVRHLLNK[Aib]TRQRY-NH2
For the molecule B4, the “Agonist activity (EC50)” value in assay [1] was 0.057 nM; in assay [2], 0.049 nM; in assay [3] it was 0.061 nM.

B5: Me-Tyr-Aib-Glu-Gly-Thr-αMePhe-Thr-Ser-Asp-Lys(-Gly-Gly-Gly-Gly-Pal)-Aib-Ile-Aib-Leu-Asp-Lys-Gln-Ala-Gln-Iva-Glu-Phe-Val-Arg-His-Leu-Leu-Asn-Lys-Aib-Thr-Arg-Gln- … (peptide)
peptide: Me-Y[Aib]EGT[αMeF]TSDK([Gly-Gly-Gly-Gly-Pal])[Aib]I[Aib]LDKQAQ[Iva]EFVRHLLNK[Aib]TRQRY-NH2
As for B5, the “Agonist activity (EC50)” value came to 0.03 nM in assay [1], 0.038 nM in assay [2] and 0.043 nM in assay [3].

B6: H-Tyr-Aib-Glu-Gly-Thr-αMePhe-Thr-Ser-Asp-Lys(-Gly-Gly-Gly-Gly-Pal)-Aib-Ile-Aib-Leu-Asp-Lys-Gln-Ala-Gln-Iva-Glu-Phe-Val-Arg-His-Leu-Leu-Asn-Lys-Aib-Thr-Arg-Gln-A … (peptide)
peptide: H-Y[Aib]EGT[αMeF]TSDK([Gly-Gly-Gly-Gly-Pal])[Aib]I[Aib]LDKQAQ[Iva]EFVRHLLNK[Aib]TRQRY-NH2
Take B6: the “Agonist activity (EC50)” value in assay [1] turned out to be 0.038 nM; in assay [2] it was 0.041 nM; in assay [3] it was 0.042 nM.

B7: Me-Tyr-Aib-Glu-Gly-Thr-αMePhe-Thr-Ser-Asp-Lys(-Gly-Gly-Gly-Gly-Pal)-Ser-Lys-Aib-Leu-Asp-Lys-Gln-Arg-Gln-Iva-Glu-Phe-Val-Arg-His-Leu-Leu-Asn-Lys-Aib-Thr-Arg-Gln- … (peptide)
peptide: Me-Y[Aib]EGT[αMeF]TSDK([Gly-Gly-Gly-Gly-Pal])SK[Aib]LDKQRQ[Iva]EFVRHLLNK[Aib]TRQRY-NH2
Consider B7, for which the “Agonist activity (EC50)” value came to 0.02 nM in assay [1], 0.048 nM in assay [2] and 0.073 nM in assay [3].

B8: Me-Tyr-Aib-Glu-Gly-Thr-αMePhe-Thr-Ser-Asp-Lys(-Gly-Gly-Gly-Gly-Oda)-Ser-Lys-Aib-Leu-Asp-Lys-Gln-Arg-Gln-Iva-Glu-Phe-Val-Arg-His-Leu-Leu-Asn-Lys-Aib-Thr-Arg-Gln- … (peptide)
peptide: Me-Y[Aib]EGT[αMeF]TSDK([Gly-Gly-Gly-Gly-Oda])SK[Aib]LDKQRQ[Iva]EFVRHLLNK[Aib]TRQRY-NH2
modifications: reading uncertain; also: printed as Me-Tyr-Aib-Glu-Gly-Thr-αMePhe-Thr-Ser-Asp-Lys(-Gly-Gly-Gly-Gly-Oda)-Ser-Lys-Aib-Leu-Asp-Lys-Gln-Arg-Gln-Iva-Glu-Phe-Val-Arg-His-Leu-Leu-Asn-Lys-Aib-Thr-Arg-Gln-Arg-Tyr-NH2
Consider B8, for which the “Agonist activity (EC50)” value is 1.2 nM in assay [1], 0.38 nM in assay [2] and 4.5 nM in assay [3].

B9: Me-Tyr-Aib-Glu-Gly-Thr-αMePhe-Thr-Ser-Asp-Lys(-Gly-Gly-Gly-Gly-Pal)-Aib-Ile-Aib-Leu-Glu-Lys-Gln-Arg-Gln-Iva-Glu-Phe-Val-Arg-His-Leu-Leu-Asn-Lys-Aib-Thr-Arg-Gln- … (peptide)
peptide: Me-Y[Aib]EGT[αMeF]TSDK([Gly-Gly-Gly-Gly-Pal])[Aib]I[Aib]LEKQRQ[Iva]EFVRHLLNK[Aib]TRQRY-NH2
For the molecule B9, the “Agonist activity (EC50)” value was found to be 0.067 nM in assay [1], 0.082 nM in assay [2] and 0.13 nM in assay [3].
